Laboratory results as given in US20210246206A1 (Stanford University, published 2021).

B1: chimeric 8B6 antibody (antibody, V domains shown)
VH: EVQLQQSGPELVKPGASVKMSCKASGYTFTTYVVHWVKQTPGQGLEWIGYINPYNDGTKYNEKFKGKATLTSDKSSSTAYMEFSSLTSEDSAVYYCVRGYYRYGYTMDYWGQGTSVTVSS
VL: DIVMTQSPATLSVTPGDRVSLSCRASQNFSDYLHWYQQKSHESPRLLIKYVSHSISGIPSRFSGSGSGSDFTLSINSVEPEDVGVYYCQNGHSFPPTFGGGTKLEIK
notes: Mouse 8B6 variable regions in a chimeric native IgG; detection was with anti-human kappa
B2: chimeric 5F9 antibody (antibody, V domains shown)
VH: QVQLQQPGAELVKPGASVMMSCKASGYTFTNYNMHWVKQTPGQGLEWIGTIYPGNDDTSYNQKFKDKATLTADKSSSAAYMQLSSLTSEDSAVYYCARGGYRAMDYWGQGTSVTVSS
VL: DVLMTQTPLSLPVSLGDQASISCRSSQSIVYSNGNTYLGWYLQKPGQSPKLLIYKVSNRFSGVPDRFSGSGSGTDFTLKISRVEAEDLGVYHCFQGSHVPYTFGGGTKVEIK
notes: Mouse 5F9 variable regions in a chimeric native IgG; detection was with anti-human kappa

Target: T1, purified human CD47-Fc fusion protein (human, UniProt Q08722 19-139, limits assumed)
T1 construct: Coated on ELISA plates at 1.0 ug/ml; also called soluble CD47; human CD47 soluble protein; not shown: Fc part
Test: ELISA on coated human CD47 soluble protein (FIG. 11)

T1 sequence (Q08722 19-139 limits assumed): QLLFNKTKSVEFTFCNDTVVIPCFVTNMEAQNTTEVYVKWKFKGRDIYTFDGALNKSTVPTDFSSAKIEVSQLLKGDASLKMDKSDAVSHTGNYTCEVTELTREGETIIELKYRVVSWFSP

| Binder | binding result |
| --- | --- |
| B1 | binds |
| B2 | binds |
